Key:
Assay in all cases: cell-based or functional assay
[1] = target: ALK (h) (human) (UniProt Q9UM73)
[2] = target: CDK2/cyclinA (h) (human) (UniProt P24941)
[3] = target: CDK2/cyclinE (h) (human) (UniProt P24941)
[4] = target: CDK7/cyclinH/MAT1 (h) (human) (UniProt P50613)
[5] = target: T1, DRAK1 (h) (human) (UniProt Q9UEE5)
T1 sequence (looked up): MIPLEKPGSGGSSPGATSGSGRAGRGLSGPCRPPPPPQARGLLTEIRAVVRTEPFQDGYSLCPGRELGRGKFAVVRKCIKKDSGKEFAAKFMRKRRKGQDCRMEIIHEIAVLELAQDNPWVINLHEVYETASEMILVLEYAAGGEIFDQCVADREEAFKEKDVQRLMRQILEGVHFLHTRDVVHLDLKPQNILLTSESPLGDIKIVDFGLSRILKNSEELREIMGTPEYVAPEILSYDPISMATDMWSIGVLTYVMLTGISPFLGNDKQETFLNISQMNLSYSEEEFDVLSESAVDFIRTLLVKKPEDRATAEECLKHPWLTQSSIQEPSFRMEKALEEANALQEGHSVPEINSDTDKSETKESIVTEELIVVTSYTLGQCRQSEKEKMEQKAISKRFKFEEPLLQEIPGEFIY

[6] = target: EphB3 (h) (human) (UniProt P54753)
Chain of EphB3 (h) (human) (P54753 581-998 limits assumed): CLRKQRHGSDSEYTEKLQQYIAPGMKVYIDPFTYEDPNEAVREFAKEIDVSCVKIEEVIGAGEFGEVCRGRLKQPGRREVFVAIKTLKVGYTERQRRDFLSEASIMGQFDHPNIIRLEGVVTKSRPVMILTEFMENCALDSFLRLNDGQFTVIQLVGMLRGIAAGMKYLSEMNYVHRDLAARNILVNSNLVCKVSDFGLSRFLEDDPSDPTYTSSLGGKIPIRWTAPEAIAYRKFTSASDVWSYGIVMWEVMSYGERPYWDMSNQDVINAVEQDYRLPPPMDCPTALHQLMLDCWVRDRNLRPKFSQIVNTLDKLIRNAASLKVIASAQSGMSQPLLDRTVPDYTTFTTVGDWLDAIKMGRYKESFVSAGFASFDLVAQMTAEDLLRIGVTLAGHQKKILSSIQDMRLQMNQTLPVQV

[7] = target: T2, Flt3(D835Y) (h) (human) (UniProt P36888)
T2 sequence (looked up): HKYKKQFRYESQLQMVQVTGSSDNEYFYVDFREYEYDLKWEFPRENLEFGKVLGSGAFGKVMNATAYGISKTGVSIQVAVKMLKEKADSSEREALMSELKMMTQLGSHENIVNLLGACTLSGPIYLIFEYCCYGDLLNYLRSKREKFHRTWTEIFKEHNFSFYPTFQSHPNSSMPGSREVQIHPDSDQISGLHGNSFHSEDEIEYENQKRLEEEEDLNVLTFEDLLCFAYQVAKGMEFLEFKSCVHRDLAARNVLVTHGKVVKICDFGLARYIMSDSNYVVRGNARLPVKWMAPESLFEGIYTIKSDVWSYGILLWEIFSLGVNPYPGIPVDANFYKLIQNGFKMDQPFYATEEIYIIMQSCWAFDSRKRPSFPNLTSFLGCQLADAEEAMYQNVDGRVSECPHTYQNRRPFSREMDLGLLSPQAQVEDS

[8] = target: HIPK1 (h) (human) (UniProt Q86Z02)
[9] = target: T3, Haspin (h) (human) (UniProt Q8TF76)
T3 sequence (looked up): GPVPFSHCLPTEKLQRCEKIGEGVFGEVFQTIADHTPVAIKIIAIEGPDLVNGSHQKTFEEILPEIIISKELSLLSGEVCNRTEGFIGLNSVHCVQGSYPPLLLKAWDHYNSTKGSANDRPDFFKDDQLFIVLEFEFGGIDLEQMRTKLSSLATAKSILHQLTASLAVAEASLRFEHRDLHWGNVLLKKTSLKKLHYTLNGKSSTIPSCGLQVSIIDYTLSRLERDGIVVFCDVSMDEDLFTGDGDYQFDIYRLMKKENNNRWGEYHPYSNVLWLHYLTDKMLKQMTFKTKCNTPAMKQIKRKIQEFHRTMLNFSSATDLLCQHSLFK

[10] = target: Hck (h) (human) (UniProt P08631)
[11] = target: T4, IRAK4 (h) (human) (UniProt Q9NWZ3)
T4 sequence (looked up): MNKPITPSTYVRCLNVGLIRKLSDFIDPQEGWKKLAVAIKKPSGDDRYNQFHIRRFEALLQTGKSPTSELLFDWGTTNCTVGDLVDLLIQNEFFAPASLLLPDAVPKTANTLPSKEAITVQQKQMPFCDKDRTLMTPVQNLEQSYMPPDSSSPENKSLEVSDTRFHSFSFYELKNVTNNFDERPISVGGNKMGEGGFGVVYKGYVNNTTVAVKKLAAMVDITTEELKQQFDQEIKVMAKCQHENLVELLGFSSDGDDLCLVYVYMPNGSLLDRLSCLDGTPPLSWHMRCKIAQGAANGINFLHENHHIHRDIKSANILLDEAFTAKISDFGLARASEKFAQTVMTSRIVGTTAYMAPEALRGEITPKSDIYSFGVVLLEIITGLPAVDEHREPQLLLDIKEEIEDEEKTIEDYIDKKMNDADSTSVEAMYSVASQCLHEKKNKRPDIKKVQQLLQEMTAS

[12] = target: Lyn (h) (human) (UniProt P07948)
[13] = target: PDGFRβ (h) (human) (UniProt P09619)
Chain of PDGFRβ (h) (human) (P09619 557-1106 limits assumed): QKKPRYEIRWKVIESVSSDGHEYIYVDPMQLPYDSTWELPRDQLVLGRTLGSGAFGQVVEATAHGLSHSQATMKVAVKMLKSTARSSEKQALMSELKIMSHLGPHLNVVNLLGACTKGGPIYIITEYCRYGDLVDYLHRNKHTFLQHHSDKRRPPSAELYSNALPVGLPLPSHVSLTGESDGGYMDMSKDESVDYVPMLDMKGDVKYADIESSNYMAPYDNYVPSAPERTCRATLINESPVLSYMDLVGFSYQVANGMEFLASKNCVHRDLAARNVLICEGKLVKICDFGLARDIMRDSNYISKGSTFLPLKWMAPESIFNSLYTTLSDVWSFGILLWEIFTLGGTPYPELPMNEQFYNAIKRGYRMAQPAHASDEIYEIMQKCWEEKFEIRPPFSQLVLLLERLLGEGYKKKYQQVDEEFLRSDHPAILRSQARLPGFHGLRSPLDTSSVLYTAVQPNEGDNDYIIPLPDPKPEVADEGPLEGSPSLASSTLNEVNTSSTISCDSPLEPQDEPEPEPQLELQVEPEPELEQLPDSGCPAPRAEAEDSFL

[14] = target: PKCβI (h) (human) (UniProt P05771)
[15] = target: T5, Rse (h) (human) (UniProt Q06418)
T5 sequence (looked up): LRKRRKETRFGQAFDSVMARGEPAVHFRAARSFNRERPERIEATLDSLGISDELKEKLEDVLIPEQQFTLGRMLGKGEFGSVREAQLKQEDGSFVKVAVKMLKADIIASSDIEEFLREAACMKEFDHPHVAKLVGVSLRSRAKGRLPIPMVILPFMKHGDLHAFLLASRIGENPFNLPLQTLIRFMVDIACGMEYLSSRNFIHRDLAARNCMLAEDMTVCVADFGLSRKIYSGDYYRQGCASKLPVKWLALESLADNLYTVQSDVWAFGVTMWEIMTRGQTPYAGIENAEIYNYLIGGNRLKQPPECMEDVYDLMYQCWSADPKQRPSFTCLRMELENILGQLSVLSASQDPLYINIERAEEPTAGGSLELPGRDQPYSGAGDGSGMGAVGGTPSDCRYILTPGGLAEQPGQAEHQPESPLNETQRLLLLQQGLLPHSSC

[16] = target: Rsk4 (h) (human) (UniProt Q9UK32)
Chain of Rsk4 (h) (human) (Q9UK32 whole entry): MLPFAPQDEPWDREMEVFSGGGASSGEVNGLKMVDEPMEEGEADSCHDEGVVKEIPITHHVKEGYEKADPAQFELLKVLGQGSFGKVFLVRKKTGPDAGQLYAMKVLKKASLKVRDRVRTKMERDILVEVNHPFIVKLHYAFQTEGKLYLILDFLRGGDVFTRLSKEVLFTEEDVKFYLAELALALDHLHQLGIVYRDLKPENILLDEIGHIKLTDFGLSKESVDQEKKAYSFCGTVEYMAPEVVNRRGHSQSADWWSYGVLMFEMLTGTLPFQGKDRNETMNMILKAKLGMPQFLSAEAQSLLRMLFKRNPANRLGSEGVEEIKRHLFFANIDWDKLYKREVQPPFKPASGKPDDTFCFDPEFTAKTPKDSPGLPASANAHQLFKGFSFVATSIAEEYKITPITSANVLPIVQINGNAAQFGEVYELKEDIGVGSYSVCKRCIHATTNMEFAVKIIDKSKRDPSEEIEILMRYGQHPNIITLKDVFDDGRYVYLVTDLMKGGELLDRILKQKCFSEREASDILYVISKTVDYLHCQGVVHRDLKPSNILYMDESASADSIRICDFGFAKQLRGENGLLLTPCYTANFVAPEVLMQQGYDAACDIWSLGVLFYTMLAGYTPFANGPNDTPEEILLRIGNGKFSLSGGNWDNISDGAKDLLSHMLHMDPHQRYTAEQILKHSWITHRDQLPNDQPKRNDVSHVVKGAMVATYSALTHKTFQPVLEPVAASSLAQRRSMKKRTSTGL

[17] = target: SRPK1 (h) (human) (UniProt Q96SB4)
[18] = target: WNK3 (h) (human) (UniProt Q9BYP7)
[19] = target: ZAP-70 (h) (human) (UniProt P43403)
Chain of ZAP-70 (h) (human) (P43403 whole entry): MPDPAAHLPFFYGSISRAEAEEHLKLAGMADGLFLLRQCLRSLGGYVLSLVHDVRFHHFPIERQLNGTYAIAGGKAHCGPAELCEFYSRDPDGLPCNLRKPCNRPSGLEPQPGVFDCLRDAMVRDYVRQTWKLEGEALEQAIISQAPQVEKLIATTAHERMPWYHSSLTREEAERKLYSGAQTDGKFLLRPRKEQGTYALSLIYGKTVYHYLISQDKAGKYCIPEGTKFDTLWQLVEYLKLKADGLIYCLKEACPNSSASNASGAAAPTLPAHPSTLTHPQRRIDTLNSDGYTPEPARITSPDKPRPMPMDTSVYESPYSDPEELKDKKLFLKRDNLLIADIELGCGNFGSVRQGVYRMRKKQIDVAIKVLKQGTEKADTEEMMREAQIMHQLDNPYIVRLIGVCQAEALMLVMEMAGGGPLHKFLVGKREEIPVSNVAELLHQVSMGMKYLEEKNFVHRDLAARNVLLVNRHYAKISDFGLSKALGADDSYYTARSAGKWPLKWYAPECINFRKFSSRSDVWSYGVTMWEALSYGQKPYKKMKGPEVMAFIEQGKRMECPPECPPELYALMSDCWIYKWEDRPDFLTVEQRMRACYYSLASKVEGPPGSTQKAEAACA

Chain of CDK7/cyclinH/MAT1 (h) (human) (P50613 whole entry, chain 1 of 3): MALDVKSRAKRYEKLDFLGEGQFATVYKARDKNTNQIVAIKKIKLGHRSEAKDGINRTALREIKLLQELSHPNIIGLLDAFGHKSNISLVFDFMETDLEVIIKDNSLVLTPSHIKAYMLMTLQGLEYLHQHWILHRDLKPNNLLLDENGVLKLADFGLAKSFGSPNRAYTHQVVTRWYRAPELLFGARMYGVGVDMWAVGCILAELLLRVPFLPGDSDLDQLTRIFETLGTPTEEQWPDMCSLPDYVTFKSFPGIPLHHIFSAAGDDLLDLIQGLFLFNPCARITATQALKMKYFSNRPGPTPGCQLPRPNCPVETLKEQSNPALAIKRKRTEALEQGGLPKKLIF
Chain of CDK7/cyclinH/MAT1 (h) (human) (P51946 whole entry, chain 2 of 3, further chain): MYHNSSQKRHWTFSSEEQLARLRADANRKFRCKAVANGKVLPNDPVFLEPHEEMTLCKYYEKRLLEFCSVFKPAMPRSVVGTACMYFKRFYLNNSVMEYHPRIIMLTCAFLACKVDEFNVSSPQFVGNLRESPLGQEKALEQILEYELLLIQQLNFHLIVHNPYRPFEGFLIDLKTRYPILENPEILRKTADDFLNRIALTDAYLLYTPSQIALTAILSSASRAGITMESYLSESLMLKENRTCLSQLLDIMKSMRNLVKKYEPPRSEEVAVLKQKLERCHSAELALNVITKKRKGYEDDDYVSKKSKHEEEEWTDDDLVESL
Chain of CDK7/cyclinH/MAT1 (h) (human) (P51948 whole entry, chain 3 of 3, further chain): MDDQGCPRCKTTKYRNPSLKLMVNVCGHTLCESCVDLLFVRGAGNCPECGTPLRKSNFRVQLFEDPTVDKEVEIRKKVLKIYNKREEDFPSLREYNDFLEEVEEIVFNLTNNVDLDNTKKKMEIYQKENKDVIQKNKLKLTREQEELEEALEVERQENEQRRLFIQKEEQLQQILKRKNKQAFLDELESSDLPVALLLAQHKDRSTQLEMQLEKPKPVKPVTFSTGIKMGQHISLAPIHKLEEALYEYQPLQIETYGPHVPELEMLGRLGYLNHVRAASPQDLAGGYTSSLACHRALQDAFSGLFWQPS

## MMI-0300 (peptide)
[1]
  % activity at 100 µM: 19%
[2]
  % activity at 100 µM: 86%
[3]
  % activity at 100 µM: 94%
[4]
  % activity at 100 µM: 65%
[5]
  % activity at 100 µM: 14%
[6]
  % activity at 100 µM: 62%
[7]
  % activity at 100 µM: 80%
[8]
  % activity at 100 µM: 74%
[9]
  % activity at 100 µM: 48%
[10]
  % activity at 100 µM: 72%
[11]
  % activity at 100 µM: 59%
[12]
  % activity at 100 µM: 69%
[13]
  % activity at 100 µM: 81%
[14]
  % activity at 100 µM: 78%
[15]
  % activity at 100 µM: 88%
[16]
  % activity at 100 µM: 90%
[17]
  % activity at 100 µM: 90%
[18]
  % activity at 100 µM: 77%
[19]
  % activity at 100 µM: 75%

Source: patent publication US20160136234A1
